We go through 39 variants from the RNAGym collection of RNA variant scans (doi:10.7554/elife.80360).

B1: CPEB3 Ribozyme (parent)
chain: GGGGGCCACAGCAGAAGCGUUCACGUCGCGGCCCCUGUCAGAUUCUGGUGAAUCUGCGAAUUCUGCUGU

Variants of B1 are the subject of the data set. The experiment in a line: self-cleavage, relative activity (ratio to wild type); higher = more cleavage; co-transcriptional.
For the variant GGGGGCCACAGCAGACGCGUUCACGUCGCGGACCCUGUCAGAUUCUGGUGAAUCUGCGAAUUCUGCUGU, the self-cleavage is 0.0786.

Regarding GGGGGCCACAGCAGAGGCGUUCACGUCGGGGCCCCUGUCAGAUUCUGGUGAAUCUGCGAAUUCUGCUGU, the self-cleavage came out at 0.309.

On to GGGGGCCACAGCAGACGCGUUCACGUCGCAGCCCCUGUCAGAUUCUGGUGAAUCUGCGAAUUCUGCUGU, for which the self-cleavage came to 0.188.

As for GGGGGCCACAGCAGACGCGUUCACGUCGCUGCCCCUGUCAGAUUCUGGUGAAUCUGCGAAUUCUGCUGU, the self-cleavage came to 0.131.

With GGGGGCCACAGCAGACGCGUUCACGUCGCGGCCCCUGUCAGAUUCUGGUUAAUCUGCGAAUUCUGCUGU, the self-cleavage worked out at 0.306.

As to GGGGGCCACAGCAGACGCGUUCACGUCGCGGCCCCUGUCAGAUUCUGGUAAAUCUGCGAAUUCUGCUGU, the self-cleavage was 0.23.

In the case of GGGGGCCACAGCAGACGCGUUCACGUCGCGGCCCCUGUCACAUUCUGGUGAAUCUGCGAAUUCUGCUGU, the self-cleavage was 0.18.

Take GGGGGCCACAGCAGACGCGUUCACGUCUCGGCCCCUGUCAGAUUCUGGUGAAUCUGCGAAUUCUGCUGU: the self-cleavage is 0.113.

Regarding GGGGGCCACAGCAGACGCGUUCACGUCGCGGCCCCUGUCAGAUUCUGGUGAAUCCGCGAAUUCUGCUGU, the self-cleavage is 0.165.

Consider GGGGGCCACAGCAGACGCGUCCACGUCGCGGCCCCUGUCAGAUUCUGGUGAAUCUGCGAAUUCUGCUGU, for which the self-cleavage turned out to be 0.174.

On to GGGGGCCACAGCAGACGCGUUCACGUCGCGGCCCCUGUCAGAUUCUGGUGAAUCUGCGAAUUCUGUUGU, for which the self-cleavage was 0.203.

With GGGGGCCACAGCAGACGCGUUCACGUCGCGGCCCCUGUCAGAUUCUGGUGAAUCUGCGAACUCUGCUGU, the self-cleavage came out at 0.26.

Turning to GGGGGCCACAGCAGACGCGUUCACGUCGCGGCCCCUGUCAGAUUCUGGUGAAUCUGCGAAAUCUGCUGU, the self-cleavage stood at 0.418.

GGGGGCCACAGCAGACGCGUUCACGUCGCGGCCCCUGUCAGAUUCUGGUGAAUCUGCGAAUUCUGCUUU: the self-cleavage is 0.408.

For GGGGGCCACAGCAGACGUGUUCACGUCGCGGCCCCUGUCAGAUUCUGGUGAAUCUGCGAAUUCUGCUGU, the self-cleavage came to 0.128.

In the case of GGGGGCCACAGCAGAGGCGUUCACGUCGCGGCCCCUGUCAGUUUCUGGUGAAUCUGCGAAUUCUGCUGU, the self-cleavage turned out to be 0.83.

As for GGGGGCCACAGCAGAGGCGUUCACGUCGCGGCCCCUGUCAGGUUCUGGUGAAUCUGCGAAUUCUGCUGU, the self-cleavage is 0.855.

On to GGGGGCCACAGCAGACGCGUUCAAGUCGCGGCCCCUGUCAGAUUCUGGUGAAUCUGCGAAUUCUGCUGU, for which the self-cleavage was determined as 0.161.

Take GGGGGCCACAGCAGACGCGUUCAUGUCGCGGCCCCUGUCAGAUUCUGGUGAAUCUGCGAAUUCUGCUGU: the self-cleavage was 0.164.

GGGGGCCACAGCAGAGGCGUUCAAGUCGCGGCCCCUGUCAGAUUCUGGUGAAUCUGCGAAUUCUGCUGU: the self-cleavage stood at 0.481.

Consider GGGGGCCACAGCAGAGGCGUUCAUGUCGCGGCCCCUGUCAGAUUCUGGUGAAUCUGCGAAUUCUGCUGU, for which the self-cleavage was found to be 0.68.

Turning to GGGGGCCACAGCAGAGGCGUUCAGGUCGCGGCCCCUGUCAGAUUCUGGUGAAUCUGCGAAUUCUGCUGU, the self-cleavage came out at 0.385.

As for GGGGGCCACAGCAGACGCGAUCACGUCGCGGCCCCUGUCAGAUUCUGGUGAAUCUGCGAAUUCUGCUGU, the self-cleavage amounted to 0.0817.

Regarding GGGGGCCACAGCAGACGCGCUCACGUCGCGGCCCCUGUCAGAUUCUGGUGAAUCUGCGAAUUCUGCUGU, the self-cleavage is 0.125.

As to GGGGGCCACAGCAGACGCGUUCACGUCGCGGCCCCUGUCAGAGUCUGGUGAAUCUGCGAAUUCUGCUGU, the self-cleavage came out at 0.198.

On to GGGGGCCACAGCAGACGCGUUCACGUCGCGGCCCCUGUCAGACUCUGGUGAAUCUGCGAAUUCUGCUGU, for which the self-cleavage was 0.204.

Consider GGGGGCCACAGCAGACGCGUUCACGUCGCGGCCCCUGUCAGAUUCUGGUGAAUCUGCGAAUACUGCUGU, for which the self-cleavage is 0.152.

Take GGGGGCCACAGCAGACGCGUUCACGUCGCGGCCCCUGUCAGAUUCUGGUGAAUCUGCGAAUCCUGCUGU: the self-cleavage was 0.222.

On to GGGGGCCACAGCAGACGCGUUCACGUCGCGGCCCCUGUCAGAUUCUGGUGAAUCUGCGAAUGCUGCUGU, for which the self-cleavage worked out at 0.148.

For the variant GGGGGCCACAGCAGAGGCGUUCACGUCGCGGCCCCUGUCAGAUUCUGGUGACUCUGCGAAUUCUGCUGU, the self-cleavage turned out to be 0.927.

Turning to GGGGGCCACAGCAGAGGCGUUCACGUCGCGGCCCCUGUCAGAUUCUGGUGUAUCUGCGAAUUCUGCUGU, the self-cleavage is 0.914.

For GGGGGCCACAGCAGAGGGGUUCACGUCGCGGCCCCUGUCAGAUUCUGGUGAAUCUGCGAAUUCUGCUGU, the self-cleavage worked out at 0.129.

For the variant GGGGGCCACAGCAGAGGCGUUCACGUCGCGGCCCCUGUCAGAUUCUGGUGAAUCUGCGAAUUUUGCUGU, the self-cleavage worked out at 0.861.

GGGGGCCACAGCAGACGCGUUCACGUCGCGGCCCCUGUCAGAUACUGGUGAAUCUGCGAAUUCUGCUGU: the self-cleavage was determined as 0.0709.

As to GGGGGCCACAGCAGACGCGUUCACGUCGCGGCCCCUGUCAGAUGCUGGUGAAUCUGCGAAUUCUGCUGU, the self-cleavage was 0.307.

For the variant GGGGGCCACAGCAGAGGCGUUCACGUCGCGGCACCUGUCAGAUUCUGGUGAAUCUGCGAAUUCUGCUGU, the self-cleavage was 0.795.

For GGGGGCCACAGCAGACGCGUUCACGUCGCGGCCCCUGUCAGAUUGUGGUGAAUCUGCGAAUUCUGCUGU, the self-cleavage was 0.272.

Turning to GGGGGCCACAGCAGACGCGUUCACGUCGCGGCCCCUGUCAGAUUUUGGUGAAUCUGCGAAUUCUGCUGU, the self-cleavage was 0.339.

Consider GGGGGCCACAGCAGACGCGUUCACGUCGCGGCCCCUGUCAGAUUAUGGUGAAUCUGCGAAUUCUGCUGU, for which the self-cleavage worked out at 0.264.
